Laboratory results published in IntAct's records for PubMed 25910212.

B1: Keratin, type II cytoskeletal 2 epidermal (Homo sapiens), P35908 (parent)
chain: MSCQISCKSRGRGGGGGGFRGFSSGSAVVSGGSRRSTSSFSCLSRHGGGGGGFGGGGFGSRSLVGLGGTKSISISVAGGGGGFGAAGGFGGRGGGFGGGSSFGGGSGFSGGGFGGGGFGGGRFGGFGGPGGVGGLGGPGGFGPGGYPGGIHEVSVNQSLLQPLNVKVDPEIQNVKAQEREQIKTLNNKFASFIDKVRFLEQQNQVLQTKWELLQQMNVGTRPINLEPIFQGYIDSLKRYLDGLTAERTSQNSELNNMQDLVEDYKKKYEDEINKRTAAENDFVTLKKDVDNAYMIKVELQSKVDLLNQEIEFLKVLYDAEISQIHQSVTDTNVILSMDNSRNLDLDSIIAEVKAQYEEIAQRSKEEAEALYHSKYEELQVTVGRHGDSLKEIKIEISELNRVIQRLQGEIAHVKKQCKNVQDAIADAEQRGEHALKDARNKLNDLEEALQQAKEDLARLLRDYQELMNVKLALDVEIATYRKLLEGEECRMSGDLSSNVTVSVTSSTISSNVASKAAFGGSGGRGSSSGGGYSSGSSSYGSGGRQSGSRGGSGGGGSISGGGYGSGGGSGGRYGSGGGSKGGSISGGGYGSGGGKHSSGGGSRGGSSSGGGYGSGGGGSSSVKGSSGEAFGSSVTFSFR
B2: Keratin, type II cytoskeletal 6A (Homo sapiens), P02538 (parent)
chain: MASTSTTIRSHSSSRRGFSANSARLPGVSRSGFSSVSVSRSRGSGGLGGACGGAGFGSRSLYGLGGSKRISIGGGSCAISGGYGSRAGGSYGFGGAGSGFGFGGGAGIGFGLGGGAGLAGGFGGPGFPVCPPGGIQEVTVNQSLLTPLNLQIDPTIQRVRAEEREQIKTLNNKFASFIDKVRFLEQQNKVLETKWTLLQEQGTKTVRQNLEPLFEQYINNLRRQLDSIVGERGRLDSELRGMQDLVEDFKNKYEDEINKRTAAENEFVTLKKDVDAAYMNKVELQAKADTLTDEINFLRALYDAELSQMQTHISDTSVVLSMDNNRNLDLDSIIAEVKAQYEEIAQRSRAEAESWYQTKYEELQVTAGRHGDDLRNTKQEIAEINRMIQRLRSEIDHVKKQCANLQAAIADAEQRGEMALKDAKNKLEGLEDALQKAKQDLARLLKEYQELMNVKLALDVEIATYRKLLEGEECRLNGEGVGQVNISVVQSTVSSGYGGASGVGSGLGLGGGSSYSYGSGLGVGGGFSSSSGRAIGGGLSSVGGGSSTIKYTTTSSSSRKSYKH
partner: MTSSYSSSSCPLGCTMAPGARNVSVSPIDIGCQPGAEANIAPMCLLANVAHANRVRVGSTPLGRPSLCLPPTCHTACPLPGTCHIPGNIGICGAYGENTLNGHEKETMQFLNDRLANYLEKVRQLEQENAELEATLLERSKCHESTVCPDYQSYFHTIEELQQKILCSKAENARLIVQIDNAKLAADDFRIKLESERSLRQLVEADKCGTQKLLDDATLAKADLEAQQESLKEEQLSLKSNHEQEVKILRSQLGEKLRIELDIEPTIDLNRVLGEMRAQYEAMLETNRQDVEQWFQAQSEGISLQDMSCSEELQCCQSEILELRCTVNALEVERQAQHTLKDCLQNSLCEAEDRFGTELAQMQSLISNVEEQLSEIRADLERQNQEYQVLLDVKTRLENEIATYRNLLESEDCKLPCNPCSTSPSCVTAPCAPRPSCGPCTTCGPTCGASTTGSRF
B3: Keratin, type II cytoskeletal 6A (Homo sapiens), P02538 (parent)
chain: B2 chain
partner: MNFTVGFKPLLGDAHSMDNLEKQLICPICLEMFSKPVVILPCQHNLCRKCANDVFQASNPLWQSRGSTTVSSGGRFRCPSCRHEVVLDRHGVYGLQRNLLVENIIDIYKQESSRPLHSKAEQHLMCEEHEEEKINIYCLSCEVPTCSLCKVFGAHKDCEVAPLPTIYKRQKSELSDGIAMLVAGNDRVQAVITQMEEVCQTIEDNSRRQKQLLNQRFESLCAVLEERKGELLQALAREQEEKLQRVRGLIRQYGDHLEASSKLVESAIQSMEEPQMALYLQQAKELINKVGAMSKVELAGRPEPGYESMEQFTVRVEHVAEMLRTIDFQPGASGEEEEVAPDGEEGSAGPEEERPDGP
B4: LHFPL tetraspan subfamily member 5 protein (Homo sapiens), Q8TAF8 (parent)
chain: MVKLLPAQEAAKIYHTNYVRNSRAVGVMWGTLTICFSVLVMALFIQPYWIGDSVNTPQAGYFGLFSYCVGNVLSSELICKGGPLDFSSIPSRAFKTAMFFVALGMFLIIGSIICFSLFFICNTATVYKICAWMQLAAATGLMIGCLVYPDGWDSSEVRRMCGEQTGKYTLGHCTIRWAFMLAILSIGDALILSFLAFVLGYRQDKLLPDDYKADGTEEV
partner: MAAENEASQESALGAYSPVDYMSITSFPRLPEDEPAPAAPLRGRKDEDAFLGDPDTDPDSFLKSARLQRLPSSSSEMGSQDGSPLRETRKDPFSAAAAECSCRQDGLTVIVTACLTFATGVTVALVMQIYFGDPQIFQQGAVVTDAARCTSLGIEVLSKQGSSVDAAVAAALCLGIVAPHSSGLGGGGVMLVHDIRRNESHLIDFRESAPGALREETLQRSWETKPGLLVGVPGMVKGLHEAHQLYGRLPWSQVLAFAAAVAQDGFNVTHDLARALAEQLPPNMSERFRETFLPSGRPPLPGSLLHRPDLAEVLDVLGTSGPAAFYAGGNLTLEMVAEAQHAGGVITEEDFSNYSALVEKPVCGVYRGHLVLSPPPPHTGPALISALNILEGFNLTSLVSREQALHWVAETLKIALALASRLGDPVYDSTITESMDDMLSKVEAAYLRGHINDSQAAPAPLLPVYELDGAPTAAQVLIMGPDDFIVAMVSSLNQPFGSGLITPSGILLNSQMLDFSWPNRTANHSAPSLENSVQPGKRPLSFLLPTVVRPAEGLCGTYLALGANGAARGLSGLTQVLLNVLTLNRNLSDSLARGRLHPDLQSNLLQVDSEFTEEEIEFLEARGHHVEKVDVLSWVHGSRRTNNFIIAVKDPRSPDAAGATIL
B5: Keratin, type II cytoskeletal 2 epidermal (Homo sapiens), P35908 (parent)
chain: B1 chain
partner: B2 partner
B6: Aspartoacylase (Homo sapiens), P45381 (parent)
chain: MTSCHIAEEHIQKVAIFGGTHGNELTGVFLVKHWLENGAEIQRTGLEVKPFITNPRAVKKCTRYIDCDLNRIFDLENLGKKMSEDLPYEVRRAQEINHLFGPKDSEDSYDIIFDLHNTTSNMGCTLILEDSRNNFLIQMFHYIKTSLAPLPCYVYLIEHPSLKYATTRSIAKYPVGIEVGPQPQGVLRADILDQMRKMIKHALDFIHHFNEGKEFPPCAIEVYKIIEKVDYPRDENGEIAAIIHPNLQDQDWKPLHPGDPMFLTLDGKTIPLGGDCTVYPVFVNEAAYYEKKEAFAKTTKLTLNAKSIRCCLH
B7: Aspartoacylase (Homo sapiens), P45381 (parent)
chain: B6 chain
partner: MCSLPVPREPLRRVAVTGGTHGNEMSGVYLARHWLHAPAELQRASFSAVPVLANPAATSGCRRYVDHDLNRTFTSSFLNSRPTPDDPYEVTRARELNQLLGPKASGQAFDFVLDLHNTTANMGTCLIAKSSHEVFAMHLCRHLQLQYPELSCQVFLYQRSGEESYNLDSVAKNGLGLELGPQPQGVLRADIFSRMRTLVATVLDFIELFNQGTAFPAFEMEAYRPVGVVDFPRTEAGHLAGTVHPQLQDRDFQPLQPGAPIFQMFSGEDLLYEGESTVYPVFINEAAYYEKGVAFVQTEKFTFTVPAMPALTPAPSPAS
B8: EF-hand domain-containing protein 1 (Homo sapiens), Q5JVL4 (parent)
chain: MVSNPVHGLPFLPGTSFKDSTKTAFHRSQTLSYRNGYAIVRRPTVGIGGDRLQFNQLSQAELDELASKAPVLTYGQPKQAPPADFIPAHVAFDKKVLKFDAYFQEDVPMSTEEQYRIRQVNIYYYLEDDSMSVIEPVVENSGILQGKLIKRQRLAKNDRGDHYHWKDLNRGINITIYGKTFRVVDCDQFTQVFLESQGIELNPPEKMALDPYTELRKQPLRKYVTPSDFDQLKQFLTFDKQVLRFYAIWDDTDSMYGECRTYIIHYYLMDDTVEIREVHERNDGRDPFPLLMNRQRVPKVLVENAKNFPQCVLEISDQEVLEWYTAKDFIVGKSLTILGRTFFIYDCDPFTRRYYKEKFGITDLPRIDVSKREPPPVKQELPPYNGFGLVEDSAQNCFALIPKAPKKDVIKMLVNDNKVLRYLAVLESPIPEDKDRRFVFSYFLATDMISIFEPPVRNSGIIGGKYLGRTKVVKPYSTVDNPVYYGPSDFFIGAVIEVFGHRFIILDTDEYVLKYMESNAAQYSPEALASIQNHVRKREAPAPEAESKQTEKDPGVQELEALIDTIQKQLKDHSCKDNIREAFQIYDKEASGYVDRDMFFKICESLNVPVDDSLVKELIRMCSHGEGKINYYNFVRAFSN

Variants of: B1
Conditions: with KRT15, P19012
Target sequence in this assay (P19012 whole entry): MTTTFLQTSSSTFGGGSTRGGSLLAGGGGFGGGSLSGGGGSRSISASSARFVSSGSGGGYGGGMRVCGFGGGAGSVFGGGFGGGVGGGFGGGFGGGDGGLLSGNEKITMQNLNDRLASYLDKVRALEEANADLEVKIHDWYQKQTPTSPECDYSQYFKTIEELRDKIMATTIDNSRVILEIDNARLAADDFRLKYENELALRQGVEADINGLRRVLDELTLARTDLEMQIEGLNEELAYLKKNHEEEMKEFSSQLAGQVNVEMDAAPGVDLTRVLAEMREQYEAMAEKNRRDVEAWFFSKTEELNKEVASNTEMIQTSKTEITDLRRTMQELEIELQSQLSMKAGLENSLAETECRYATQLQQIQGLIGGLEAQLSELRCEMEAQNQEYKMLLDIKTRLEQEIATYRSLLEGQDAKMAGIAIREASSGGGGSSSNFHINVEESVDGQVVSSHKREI

effect of a mutation on the interaction	Variant
with no effect	I477N
with no effect	N186K

Variants of: B1
Conditions: with KRT40, Q6A162
Sequence of KRT40, Q6A162 (Q6A162 whole entry): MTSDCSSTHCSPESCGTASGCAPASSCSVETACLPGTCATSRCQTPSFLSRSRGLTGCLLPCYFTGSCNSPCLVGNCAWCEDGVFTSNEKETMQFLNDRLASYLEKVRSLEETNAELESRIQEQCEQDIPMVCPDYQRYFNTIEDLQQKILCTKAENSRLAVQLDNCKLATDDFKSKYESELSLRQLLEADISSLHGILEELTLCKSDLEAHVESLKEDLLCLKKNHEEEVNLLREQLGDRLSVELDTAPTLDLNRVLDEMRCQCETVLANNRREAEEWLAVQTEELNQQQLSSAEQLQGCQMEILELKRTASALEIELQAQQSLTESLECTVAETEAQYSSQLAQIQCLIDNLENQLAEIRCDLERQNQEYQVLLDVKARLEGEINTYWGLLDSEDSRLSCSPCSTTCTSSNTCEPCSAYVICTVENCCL

effect of a mutation on the interaction	Variant
disrupting interaction strength	I477N
with no effect	N186K

Variants of: B1
Conditions: with k1h1_human KRT31, Q15323
Sequence of k1h1_human KRT31, Q15323 (Q15323 whole entry): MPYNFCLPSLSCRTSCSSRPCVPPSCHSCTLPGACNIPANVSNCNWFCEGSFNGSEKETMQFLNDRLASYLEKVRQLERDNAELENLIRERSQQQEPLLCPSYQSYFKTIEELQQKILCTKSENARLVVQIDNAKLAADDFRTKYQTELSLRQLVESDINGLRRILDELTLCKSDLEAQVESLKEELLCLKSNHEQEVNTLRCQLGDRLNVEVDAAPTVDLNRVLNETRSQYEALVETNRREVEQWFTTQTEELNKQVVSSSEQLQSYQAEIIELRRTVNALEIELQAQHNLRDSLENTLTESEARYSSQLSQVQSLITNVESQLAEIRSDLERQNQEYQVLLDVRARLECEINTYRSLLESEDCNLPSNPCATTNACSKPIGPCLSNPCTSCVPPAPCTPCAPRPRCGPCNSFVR

effect of a mutation on the interaction	Variant
disrupting interaction strength	I477N
with no effect	N186K

Variants of: B1
Conditions: with KRT19, P08727
Sequence of KRT19, P08727 (P08727 whole entry): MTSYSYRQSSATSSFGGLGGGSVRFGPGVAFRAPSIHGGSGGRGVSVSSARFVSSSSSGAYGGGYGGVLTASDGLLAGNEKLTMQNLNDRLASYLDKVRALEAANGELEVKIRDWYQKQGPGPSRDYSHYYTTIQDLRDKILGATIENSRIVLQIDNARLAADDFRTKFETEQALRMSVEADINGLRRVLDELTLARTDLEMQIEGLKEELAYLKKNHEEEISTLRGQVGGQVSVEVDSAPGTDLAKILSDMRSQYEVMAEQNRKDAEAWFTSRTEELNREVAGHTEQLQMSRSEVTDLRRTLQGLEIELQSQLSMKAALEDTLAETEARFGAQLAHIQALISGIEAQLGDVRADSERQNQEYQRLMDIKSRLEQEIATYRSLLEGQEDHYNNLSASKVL

effect of a mutation on the interaction	Variant
disrupting interaction strength	I477N
with no effect	N186K

Variants of: B1
Conditions: with k1h1_human KRT31, Q15323
Remark: another data set of the same source

effect of a mutation on the interaction	Variant
with no effect	I477N

Variants of: B2
Conditions: with krt38_human KRT38, O76015

Variant	effect of a mutation on the interaction
N171K	with no effect
F174V	with no effect

The next lines start with the values.

effect of a mutation on the interaction	Variant
with no effect	A463P
with no effect	I462S

Variants of: B2
Conditions: with krt38_human KRT38, O76015
Remark: another data set of the same source

effect of a mutation on the interaction	Variant
with no effect	T552S
with no effect	V523F
with no effect	N21S
with no effect	F249L

Variants of: B3
Conditions: with tri54_human TRIM54, Q9BYV2

Variant	effect of a mutation on the interaction
N21S	with no effect
F249L	with no effect
I462S	with no effect

More lines, now with the values ahead:

effect of a mutation on the interaction	Variant
with no effect	F174V
with no effect	T552S
with no effect	V523F
disrupting interaction strength	A463P
with no effect	N171K

Variants of: B3
Conditions: with tri54_human TRIM54, Q9BYV2
Remark: another data set of the same source

effect of a mutation on the interaction	Variant
causing an interaction	F174V

Variants of: B4
Conditions: with ggt7_human GGT7, Q9UJ14

effect of a mutation on the interaction	Variant
disrupting interaction strength	T165M
disrupting interaction strength	Y127C

Variants of: B5
Conditions: with krt38_human KRT38, O76015

effect of a mutation on the interaction	Variant
with no effect	L484P
disrupting interaction strength	I477N
with no effect	N186K

Variants of: B5
Conditions: with krt38_human KRT38, O76015
Remark: another data set of the same source

effect of a mutation on the interaction	Variant
with no effect	G219D

Variants of: B6
Conditions: with keap1_human KEAP1, Q14145
Sequence of keap1_human KEAP1, Q14145 (Q14145 whole entry): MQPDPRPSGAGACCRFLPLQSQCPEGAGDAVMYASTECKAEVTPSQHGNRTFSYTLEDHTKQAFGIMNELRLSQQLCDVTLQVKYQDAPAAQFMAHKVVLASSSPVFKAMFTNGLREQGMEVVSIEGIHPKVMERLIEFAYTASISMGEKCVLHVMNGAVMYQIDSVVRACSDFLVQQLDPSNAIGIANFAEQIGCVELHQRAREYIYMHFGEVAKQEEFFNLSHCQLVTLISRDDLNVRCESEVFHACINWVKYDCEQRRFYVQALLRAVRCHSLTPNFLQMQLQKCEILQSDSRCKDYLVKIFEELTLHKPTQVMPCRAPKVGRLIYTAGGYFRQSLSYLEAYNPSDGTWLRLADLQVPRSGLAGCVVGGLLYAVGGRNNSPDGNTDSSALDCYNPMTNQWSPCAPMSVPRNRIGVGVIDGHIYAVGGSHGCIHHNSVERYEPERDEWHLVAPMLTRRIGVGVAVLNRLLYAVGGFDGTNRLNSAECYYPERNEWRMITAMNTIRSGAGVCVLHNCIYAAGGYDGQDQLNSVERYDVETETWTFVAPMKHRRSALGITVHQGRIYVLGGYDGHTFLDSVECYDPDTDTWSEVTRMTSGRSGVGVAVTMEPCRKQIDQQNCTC

effect of a mutation on the interaction	Variant
with no effect	E24G
disrupting interaction strength	E285A
with no effect	M195R

Variants of: B6
Conditions: with keap1_human KEAP1, Q14145
Remark: another data set of the same source

effect of a mutation on the interaction	Variant
causing an interaction	E24G
causing an interaction	E285A
causing an interaction	M195R

Variants of: B7
Conditions: with acy3_human ACY3, Q96HD9

effect of a mutation on the interaction	Variant
disrupting interaction strength	I143F

Variants of: B7
Conditions: with acy3_human ACY3, Q96HD9
Remark: another data set of the same source

effect of a mutation on the interaction	Variant
disrupting interaction strength	M195R
disrupting interaction strength	E285A
disrupting interaction strength	E24G

Variants of: B8
Conditions: with ikzf3_human IKZF3, Q9UKT9
Sequence of ikzf3_human IKZF3, Q9UKT9 (Q9UKT9 whole entry): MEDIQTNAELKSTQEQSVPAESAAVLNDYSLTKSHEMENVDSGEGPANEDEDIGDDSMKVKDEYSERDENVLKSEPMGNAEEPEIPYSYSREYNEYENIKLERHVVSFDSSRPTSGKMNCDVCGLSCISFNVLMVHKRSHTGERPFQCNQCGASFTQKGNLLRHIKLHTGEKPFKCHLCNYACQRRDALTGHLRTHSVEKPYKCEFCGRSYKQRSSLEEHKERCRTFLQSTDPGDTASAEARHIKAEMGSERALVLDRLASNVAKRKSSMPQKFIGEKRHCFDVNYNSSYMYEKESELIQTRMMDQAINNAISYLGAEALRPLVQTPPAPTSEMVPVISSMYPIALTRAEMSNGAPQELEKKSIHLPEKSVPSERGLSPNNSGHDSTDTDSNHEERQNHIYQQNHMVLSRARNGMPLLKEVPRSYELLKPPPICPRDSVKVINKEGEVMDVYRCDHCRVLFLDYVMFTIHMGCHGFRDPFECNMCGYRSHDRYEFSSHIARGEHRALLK

effect of a mutation on the interaction	Variant
disrupting interaction strength	A394S

Variants of: B8
Conditions: with kctd4_human KCTD4, Q8WVF5

effect of a mutation on the interaction	Variant
disrupting interaction strength	A394S

Variants of: B8
Conditions: with rim3a_human RIMBP3, Q9UFD9
Sequence of rim3a_human RIMBP3, Q9UFD9 (Q9UFD9 whole entry): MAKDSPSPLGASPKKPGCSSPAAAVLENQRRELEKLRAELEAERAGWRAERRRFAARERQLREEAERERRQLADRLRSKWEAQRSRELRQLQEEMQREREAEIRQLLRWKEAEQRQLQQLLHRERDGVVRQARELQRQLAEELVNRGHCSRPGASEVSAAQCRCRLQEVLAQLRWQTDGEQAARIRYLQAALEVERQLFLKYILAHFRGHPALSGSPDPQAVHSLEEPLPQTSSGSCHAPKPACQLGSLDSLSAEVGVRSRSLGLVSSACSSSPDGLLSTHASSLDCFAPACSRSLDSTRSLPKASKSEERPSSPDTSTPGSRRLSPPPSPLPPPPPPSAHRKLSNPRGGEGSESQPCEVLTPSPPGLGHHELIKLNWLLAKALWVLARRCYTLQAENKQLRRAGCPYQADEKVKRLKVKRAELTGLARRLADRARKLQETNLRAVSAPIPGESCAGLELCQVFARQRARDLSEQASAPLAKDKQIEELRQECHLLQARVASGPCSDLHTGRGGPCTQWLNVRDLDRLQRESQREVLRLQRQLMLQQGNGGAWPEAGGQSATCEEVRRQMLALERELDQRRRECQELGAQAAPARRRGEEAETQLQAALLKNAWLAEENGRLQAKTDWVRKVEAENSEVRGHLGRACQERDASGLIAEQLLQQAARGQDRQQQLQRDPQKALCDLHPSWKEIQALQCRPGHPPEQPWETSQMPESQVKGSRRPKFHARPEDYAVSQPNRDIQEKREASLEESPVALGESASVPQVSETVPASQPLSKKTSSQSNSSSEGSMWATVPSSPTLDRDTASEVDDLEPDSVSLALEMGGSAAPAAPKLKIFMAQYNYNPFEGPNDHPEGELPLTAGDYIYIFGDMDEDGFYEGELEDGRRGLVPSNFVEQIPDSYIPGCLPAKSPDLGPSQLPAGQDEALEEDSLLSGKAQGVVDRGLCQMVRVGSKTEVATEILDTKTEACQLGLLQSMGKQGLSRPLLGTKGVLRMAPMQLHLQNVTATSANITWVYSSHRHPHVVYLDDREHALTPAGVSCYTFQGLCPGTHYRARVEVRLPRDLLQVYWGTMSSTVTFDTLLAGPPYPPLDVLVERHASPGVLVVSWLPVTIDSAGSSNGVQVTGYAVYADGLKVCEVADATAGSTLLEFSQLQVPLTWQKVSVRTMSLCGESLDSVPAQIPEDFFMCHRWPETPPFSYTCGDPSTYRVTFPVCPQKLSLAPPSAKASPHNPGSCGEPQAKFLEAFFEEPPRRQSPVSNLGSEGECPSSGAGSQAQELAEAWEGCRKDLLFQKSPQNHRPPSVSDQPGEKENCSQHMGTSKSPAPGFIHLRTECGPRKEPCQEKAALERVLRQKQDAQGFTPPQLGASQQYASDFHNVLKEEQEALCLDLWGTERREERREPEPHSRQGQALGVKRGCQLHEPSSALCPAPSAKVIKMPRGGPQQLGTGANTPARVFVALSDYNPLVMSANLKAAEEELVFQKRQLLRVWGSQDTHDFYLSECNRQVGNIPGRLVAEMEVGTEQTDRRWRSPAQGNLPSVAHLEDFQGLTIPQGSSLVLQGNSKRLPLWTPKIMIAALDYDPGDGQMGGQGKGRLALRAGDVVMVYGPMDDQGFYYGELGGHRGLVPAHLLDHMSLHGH

effect of a mutation on the interaction	Variant
disrupting interaction strength	A394S

Variants of: B8
Conditions: with trip6_human TRIP6, Q15654
Sequence of trip6_human TRIP6, Q15654 (Q15654 whole entry): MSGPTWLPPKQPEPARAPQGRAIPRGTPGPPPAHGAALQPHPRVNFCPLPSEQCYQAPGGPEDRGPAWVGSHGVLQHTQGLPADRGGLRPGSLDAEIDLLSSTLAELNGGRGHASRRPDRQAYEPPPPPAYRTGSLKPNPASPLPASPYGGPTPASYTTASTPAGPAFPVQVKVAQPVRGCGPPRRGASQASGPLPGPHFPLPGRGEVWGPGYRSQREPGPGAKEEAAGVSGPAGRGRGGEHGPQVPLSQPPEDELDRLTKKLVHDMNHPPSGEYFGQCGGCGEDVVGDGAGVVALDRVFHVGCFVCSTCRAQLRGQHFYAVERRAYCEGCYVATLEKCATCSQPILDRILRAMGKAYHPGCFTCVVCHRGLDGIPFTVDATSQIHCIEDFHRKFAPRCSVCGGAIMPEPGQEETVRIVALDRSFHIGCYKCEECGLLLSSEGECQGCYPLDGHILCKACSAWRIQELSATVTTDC

effect of a mutation on the interaction	Variant
disrupting interaction strength	A394S

Variants of: B8
Conditions: with KRT15, P19012
Target sequence in this assay (P19012 whole entry): as the sequence (P19012 whole entry) above

effect of a mutation on the interaction	Variant
disrupting interaction strength	A394S

Variants of: B8
Conditions: with TCF4, P15884-3

effect of a mutation on the interaction	Variant
disrupting interaction strength	A394S

Variants of: B8
Conditions: with goga2_human GOLGA2, Q08379

effect of a mutation on the interaction	Variant
disrupting interaction strength	A394S
